Usually share remaining stands for what is left of the initial amount, in per cent. A word on the EC50: it is the concentration needed to bring the measured effect to its halfway point.

Like-named read-outs stand apart in the source and are kept apart here. Non-standard residues stand in square brackets, D forms with d. Primed or numbered codes have the meaning given here. *: point of attachment. DO3A10CM(3) = metal chelator group attached at the N-terminus (X in table rows); DO3A10CM″ = chelating group at the N-terminus (X in the sequence tables); Bpa = N[C@@H](Cc1ccc(C(=O)c2ccccc2)cc1)C(=O)O; d1Nal = N[C@H](Cc1cccc2ccccc12)C(=O)O; d2Nal = N[C@H](Cc1ccc2ccccc2c1)C(=O)O; d3Pal = N[C@H](Cc1cccnc1)C(=O)O; His(1-Me) = 1-methylhistidine; DO3A10CM = not defined here; Nicotinoyl = O=C(c1cccnc1)*; Bpa4 = non-natural residue; Amfe4 = not defined here; Bzgly = not defined here; Dcfe4 = not defined here; Hpgly = not defined here; dCfe4 = not defined here; Afe4 = not defined here; azaGly = NNC(=O)O; Sar = CNCC(=O)O; iPr = CC(C)*

Data set [1] can be described thus: In vitro metabolic stability in mouse liver homogenate at 37° C. The format is in vitro ADME. The following applies: liver homogenate at 37° C. for 60 min. On the procedure: Livers from 10 female Tac:NCr:Foxn1^nu/nu mice were excised, rinsed with ice cold PBS (no Ca^++ or Mg^++) and weighed. The tissues were minced with scissors in Petri dishes on ice with Tris buffered saline (Pierce BupH™ Tris buffered saline packs, #28376; 25 mM Tris, 150 mM NaCl, pH 7.2). After mincing, the tissues were dounce homogenized, and the total volume adjusted with ice cold Tris buffer (4 mL for every gram of excised tissue). The homogenate was centrifuged at ˜4000×g for 10 min at 4° C. The supernatants were aliquoted into Eppendorf tubes on ice (200 and 100 μl volumes) and stored at −80° C. Kidney homogenates were similarly prepared. […] The mixture was centrifuged at 4° C. for 20 min at 20,000×g to precipitate the protein; 10 μL (˜7.6 μCi) of the supernatant was injected into the HPLC for the analysis. […] Peaks at these retention times were also observed in the in vivo plasma sample (FIG. 1). […] After 0 and 60 min, the sample was removed from the incubator, immediately cooled on ice and 2 μL of 10 mM EDTA and 0.2 mL of ice-cooled MeOH were added, mixing after each addition. The proteins in the sample were separated by centrifugation at 14,000 rpm for 20 min. The supernatant was harvested and, in the samples spiked with the ^177Lu-analog, the radioactivity was measured using a Capintec dose calibrator to determine recovery. The sample was then analyzed by HPLC. […] After 0 and 60 min, the sample was removed from the incubator, immediately cooled on ice and 2 μL of 10 mM EDTA and 0.24 mL of ice-cooled methanol was added, mixing after each addition. The proteins in the sample were separated by centrifugation at 14,000 rpm for 20 min. The supernatant was collected and analyzed by LC/MS as described earlier herein.

Data set [2] deals with EFO-27 human ovarian cancer cells (LHRH binding sites). Briefly: Direct binding/uptake of 177Lu-labeled LHRH-II analogs to EFO-27 cells. The following applies: 177Lu-labeled analog, single concentration. On the procedure:
All reagents and chemicals were obtained from Sigma unless otherwise specified. LHRH analogs and ^177Lu-LHRH-II analogs were prepared by in-house chemists, as described elsewhere in the application. ^177Lu-LHRH-II analogs were not HPLC purified, as they had been prepared using formulation conditions that yielded high RCP without the need for purification. […] The HPLC-purified material was taken in a stabilizing buffer containing 5% lactose, 0.1% L-cysteine hydrochloride and 800 KIU/mL aprotinin and received as a lyophilized product and stored at −70° C. This was reconstituted in distilled water, aliquoted and stored at −70° C. The radioactivity was determined using Microplate Scintillation counter (Wallac Microbeta Trilux).
For the binding assay, EFO-27 cells were seeded onto 96-well clear flat-bottom tissue-culture-treated plates at 15,000/well density in the growth medium and used for assay on day 2 post-seeding. Cells were routinely checked for confluence and contamination and cell count was done occasionally to ensure consistency in cell numbers.
Direct Binding: Direct binding studies were carried out by incubating appropriate ^177Lu-labeled compounds with EFO-27 cells at 4° C. for 1 h followed by washing off the unbound radioactivity. Non-specific binding was determined by incubating the ^177Lu-LHRH-II analogs in the presence of a large excess (30 uM) of cold (unlabeled) LHRH-II analogs. A 96-well plate format was used.

The subject of data set [3] is LHRH binding sites on human ovarian cancer cells (EFO-27).
Data set [4] has as its target LHRH receptor (LHRH binding sites) on EFO-27 human ovarian cancer cells (human). Briefly: competition with [125I-Tyr8]BRU-2477 for binding to EFO-27 cells.
For data set [5], the target named is LHRH binding sites on EFO-27 human ovarian cancer cells (human). In words: competition with [125I-Tyr8]BRU-2477 on EFO-27 cells.
Data set [6] addresses LHRH receptor (LHRH binding sites) on EFO-27 human ovarian cancer cells (human). In words: competition with [125I-Tyr8]BRU-2477 for binding to EFO-27 cells. The source holds these as a separate data set.
The target is the same in data set [7]. Briefly: competition with [125I-Tyr8]BRU-2477, EFO-27 cells.
[8] abbreviates: read-out: 125I-LHRH II Competition EC50, Table 24, unlabeled analogs, EFO-27 cells.

`N=C(N)NCCC[C@H](NC(=O)[C@@H](Cc1ccc2ccccc2c1)NC(=O)CN1CCN(CC(=O)O)CCN(CC(=O)O)CCN(CC(=O)O)CC1)C(=O)N[C@@H](Cc1c[nH]c2ccccc12)C(=O)N[C@@H](CO)C(=O)N[C@@H](Cc1c[nH]cn1)C(=O)N[C@H](CCCNC(=N)N)C(=O)N[C@@H](Cc1c[nH]c2ccccc12)C(=O)N[C@@H](Cc1ccc(C(=O)c2ccccc2)cc1)C(=O)N1CSC[C@H]1C(N)=O` [Lu-BRU-3072]: the amount remaining at 1 h, 0.3 mg/mL in data set [1] (female, Tac:NCr:Foxn1nu/nu, mouse, tissue homogenate, pH 7.2, mean ± SD, n = 3, read-out: % remaining (% of parent remaining)) amounted to 98.5 ± 0.2%. Further, in data set [1] (compared to Lu-BRU-2813 or unstabilized peptide), the “Stabilized relative to parent?” value is “Yes”.
For the molecule `N=C(N)NCCC[C@H](NC(=O)[C@@H](Cc1ccc2ccccc2c1)NC(=O)CN1CCN(CC(=O)O)CCN(CC(=O)O)CCN(CC(=O)O)CC1)C(=O)N[C@@H](Cc1c[nH]c2ccccc12)C(=O)N[C@@H](CO)C(=O)N[C@@H](Cc1c[nH]cn1)C(=O)N[C@H](CCCNC(=N)N)C(=O)N[C@@H](Cc1c[nH]c2ccccc12)C(=O)N[C@@H](Cc1ccc(C(=O)c2ccccc2)cc1)C(=O)N1CCC[C@H]1C(=O)NNC(N)=O` [compound 2813], the “177Lu-LHRH II Direct binding % Bound” value in data set [2] is reported as 18.80%. Further, in data set [3] (setting [8]), the EC50 was 300 nM.
The matching figures for “2896 (XHWSHXWXPX; not fully specified; N-methyl) [compound 2896]”: 0.70% and 3200 nM.
The matching figures for “2613 (DO3A10CM-G[Sar][Dcfe4][d1Nal]S[Metyr][dK](Nicotinoyl)LK(iPr)P[dA]-NH2; reading uncertain) [compound 2613]”: 0.17% and more than 10000 nM.
For “2823 (XHWSHXWXPX; not fully specified; N-methyl) [compound 2823]” the same measures were 1.00% and 1610 nM.
For the molecule `N=C(N)NCCC[C@@H](NC(=O)[C@H](Cc1c[nH]cn1)NC(=O)[C@H](CO)NC(=O)[C@H](Cc1c[nH]c2ccccc12)NC(=O)[C@H](Cc1c[nH]cn1)NC(=O)CN(CCc1ccc(O)cc1)C(=O)CNC(=O)CN1CCN(CC(=O)O)CCN(CC(=O)O)CCN(CC(=O)O)CC1)C(=O)N[C@@H](Cc1c[nH]c2ccccc12)C(=O)N[C@@H](Cc1ccc(C(=O)c2ccccc2)cc1)C(=O)N1CCC[C@H]1C(=O)NNC(N)=O` [compound 2797], the “177Lu-LHRH II Direct binding % Bound” value in data set [2] came to 4.64%. The molecule further gave a concentration for a half-maximal effect (EC50) in data set [3] (Table 8: N-substituted amino acid at position 1 and Gly as linker, in vitro binding on EFO-27 cells) of 450 nM.
In the case of “2644 (DO3A10CM-G[d2Nal][Dcfe4][d3Pal]SH[dR]WYP[dA]-NH2; reading uncertain) [compound 2644]”, the “177Lu-LHRH II Direct binding % Bound” value in data set [2] came to 2.13%. For the same molecule, the concentration giving a half-maximal response (EC50) in data set [3] (setting [8]) came to 2910 nM.
For “2812 (DO3A10CM-[d2Nal][Afe4]WSH[dR]W[Bpa]P[azaGly]-NH2; not fully specified; printed as X-Dnal2-Afe4-Trp-Ser-His-Darg-Trp-Bpa4-Pro-azaG-NH2; reading uncertain) [compound 2812]” the same measures were 5.80% and 3690 nM.

B1: BRU-2756 (peptide)
peptide: DO3A10CM-[Sar][Amfe4]WSH[dR]W[Bpa4]P[azaGly]-NH2
modifications: reading uncertain; also: printed as DO3A10CM-Sar-Amfe4-Trp-Ser-His-Darg-Trp-Bpa4-Pro-azaGly-NH2
Consider B1, for which the EC50 in data set [4] and in data set [5] was 280 nM in each case.

B2: BRU-2792 (peptide)
peptide: DO3A10CM-G[Bzgly]HWSH[dR]W[Bpa]P[azaGly]-NH2
modifications: reading uncertain; also: printed as DO3A10CM-Gly-Bzgly-His-Trp-Ser-His-Darg-Trp-Bpa4-Pro-azaGly-NH2
As for B2, the results for the 50% effective concentration (EC50) in data set [4] and in data set [5] were 1800 nM and 2270 nM, respectively.
The matching figures for XHWSHXWXPX (DO3A10CM on N-terminus; AA1 Sar; AA6 Darg; AA8 F5fe; AA10 azaGly-NH2) [BRU-2722]: 4620 nM and 4620 nM.
For XHWSHXWXPX (DO3A10CM on N-terminus; AA1 Sar; AA6 Darg; AA8 Thy; AA10 azaGly-NH2) [BRU-2823] the same measures were 1610 nM and 1610 nM.
The matching figures for XHWSHXWXPX (DO3A10CM on N-terminus; AA1 Sar; AA6 Darg; AA8 Cfe4; AA10 azaGly-NH2) [BRU-2725]: 2260 nM and 2260 nM.
As for XHWSHXWXPX (DO3A10CM on N-terminus; AA1 Dafe4; AA6 Darg; AA8 Bpa4; AA10 azaGly-NH2) [BRU-2810], the EC50 in data set [4] and in data set [5] was 980 nM each time.

B3: BRU-2766 (peptide)
peptide: DO3A10CM-G[d1Nal]HWSH[dR]W[Bpa4]P[azaGly]-NH2
modifications: reading uncertain; also: printed as DO3A10CM-Gly-Dnal1-His-Trp-Ser-His-Darg-Trp-Bpa4-Pro-azaGly-NH2
B3: the concentration giving a half-maximal response (EC50) in data set [4] amounted to 620 nM; in data set [5] it was 620 nM; in data set [6], 650 nM.

B4: BRU-2696 (peptide)
peptide: XXHWSHXWXPX
modifications: as printed: DO3A10CM-Gly-Abz4-Sar-His-Trp-Ser-His-Darg-Trp-Bpa4-Pro-azaGly-NH2 (Gly-Abz4 is the linker)
In the case of B4, the 50% effective concentration (EC50) in data set [4] worked out at 440 nM; in data set [7] it was 440 nM; in data set [6] it was 650 nM.

B5: BRU-2797 (peptide)
peptide: DO3A10CM-G[Hpgly]HWSH[dR]W[Bpa]P[azaGly]-NH2
modifications: reading uncertain; also: printed as DO3A10CM-Gly-Hpgly-His-Trp-Ser-His-Darg-Trp-Bpa4-Pro-azaGly-NH2
B5: the EC50 in data set [4], in data set [5] and in data set [7] was 450 nM in each case.
Take {DO3A10CM″}-[Sar][His(1-Me)]WSH[dR]W[Bpa]P[azaGly]-NH2 [BRU-2741]: the half-maximal effective concentration (EC50) in data set [4] and in data set [5] was 2990 nM throughout.

B6: BRU-2812 (peptide)
peptide: DO3A10CM-[d2Nal][Afe4]WSH[dR]W[Bpa]P[azaGly]-NH2
modifications: reading uncertain; also: printed as DO3A10CM-Dnal2-Afe4-Trp-Ser-His-Darg-Trp-Bpa4-Pro-azaGly-NH2
In the case of B6, in data set [4], the EC50 was 3690 nM.
Turning to XHWSHXWXPX (DO3A10CM on N-terminus; AA1 Dphe; AA6 Darg; AA8 Bpa4; AA10 azaGly-NH2) [BRU-2894], the EC50 in data set [4] and in data set [5] was 2000 nM in each case.

B7: BRU-2644 (peptide)
peptide: {DO3A10CM(3)}-G[d2Nal][dCfe4][d3Pal]SH[dR]WYP[dA]-NH2
modifications: reading uncertain; also: printed as DO3A10CM-Gly-Dnal2-Dcfe4-Dpal3-Ser-His-Darg-Trp-Tyr-Pro-Dala-NH2
For B7, the EC50 in data set [4] was found to be 2910 nM.
Take XHWSHXWXPX (DO3A10CM on N-terminus; AA1 Sar; AA6 Darg; AA8 Nal2; AA10 azaGly-NH2) [BRU-2624]: the EC50 in data set [4] and in data set [5] was 2010 nM each time.
Consider XHWSHXWXPX (DO3A10CM on N-terminus; AA1 Sar; AA6 Darg; AA8 Dip; AA10 azaGly-NH2) [BRU-2721], for which the concentration giving a half-maximal response (EC50) in data set [4] and in data set [5] was 4550 nM each time.
In data set [4], XFWSHXWXPX (as printed: DO3A10CM-Sar-Phe-Trp-Ser-His-Darg-Trp-Bpa4-Pro-azaGly-NH2) [BRU-2738] showed an EC50 of 1220 nM.
In the case of XHWSHXWXPX (N-terminal DO3A10CM; Damfe4 at 1; Darg at 6; Bpa4 at 8; azaGly-NH2 at 10) [BRU-2757], the EC50 in data set [4], in data set [5] and in data set [7] was 260 nM throughout.
Turning to XHWSHXWXPX (DO3A10CM on N-terminus; AA1 Meala; AA6 Darg; AA8 Bpa4; AA10 azaGly-NH2) [BRU-2736], the EC50 in data set [4] and in data set [5] was 1420 nM in each case.

The values are drawn from patent publication US20120045393A1 (priority 2009, published 2012).
